Experiment [1] has as its target T1, Standard peptide LPGGYGLPYT (human).
T1 construct: Synthetic decapeptide with a free C-terminus; also called calibrator peptide; selection peptide
T1 peptide: LPGGYGLPYT-OH
The experiment is described as follows: Indirect or competitive ELISA with the standard peptide as calibrator. For orientation: An ELISA detects its analyte on a solid surface through an enzyme-linked reagent.

For experiment [2], the target named is T2, intact elastin (Sigma, E7152) (human, UniProt P15502 27-786, limits assumed).
T2 construct: Uncleaved elastin control of the in vitro cleavage experiment
T2 sequence (looked up): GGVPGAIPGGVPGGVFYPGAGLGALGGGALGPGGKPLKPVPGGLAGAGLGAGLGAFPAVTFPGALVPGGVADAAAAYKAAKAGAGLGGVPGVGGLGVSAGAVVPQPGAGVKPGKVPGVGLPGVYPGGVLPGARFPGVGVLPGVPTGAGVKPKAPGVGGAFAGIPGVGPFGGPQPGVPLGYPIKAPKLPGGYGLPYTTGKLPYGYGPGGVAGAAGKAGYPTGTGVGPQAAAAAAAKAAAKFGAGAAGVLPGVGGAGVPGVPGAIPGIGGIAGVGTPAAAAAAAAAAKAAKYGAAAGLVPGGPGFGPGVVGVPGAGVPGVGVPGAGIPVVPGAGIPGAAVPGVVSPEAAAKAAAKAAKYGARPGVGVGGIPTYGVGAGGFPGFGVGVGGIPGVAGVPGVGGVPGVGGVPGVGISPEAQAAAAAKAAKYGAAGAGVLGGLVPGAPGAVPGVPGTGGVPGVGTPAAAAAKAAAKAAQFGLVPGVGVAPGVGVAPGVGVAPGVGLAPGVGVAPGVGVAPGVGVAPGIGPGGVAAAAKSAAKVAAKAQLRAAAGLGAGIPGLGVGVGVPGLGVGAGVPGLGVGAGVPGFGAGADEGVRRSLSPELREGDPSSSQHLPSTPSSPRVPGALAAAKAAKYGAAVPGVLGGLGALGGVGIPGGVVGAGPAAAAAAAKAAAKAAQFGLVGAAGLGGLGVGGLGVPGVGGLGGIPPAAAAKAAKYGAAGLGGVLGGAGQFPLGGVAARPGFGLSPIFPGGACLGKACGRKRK
The experiment is described as follows: ELP-3 competitive ELISA on in vitro cleavage samples.

The target of experiment [3] is T3, Human neutrophil elastase (HNE) protein (Abcam, ab91099) (human, UniProt P08246 30-247, limits assumed).
T3 construct: also called protease control
T3 sequence (looked up): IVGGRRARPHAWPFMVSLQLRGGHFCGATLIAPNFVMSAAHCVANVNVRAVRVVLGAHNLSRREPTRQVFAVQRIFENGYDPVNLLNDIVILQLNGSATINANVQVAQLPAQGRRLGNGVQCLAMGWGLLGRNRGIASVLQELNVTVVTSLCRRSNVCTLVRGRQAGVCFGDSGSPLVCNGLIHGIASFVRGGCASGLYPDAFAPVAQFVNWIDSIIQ
Described as above.

In experiment [4] the target is T4, Proteinase 3 (PR3; EPC ML734) (UniProt P24158 28-248).
T4 construct: also called protease control
T4 sequence (looked up): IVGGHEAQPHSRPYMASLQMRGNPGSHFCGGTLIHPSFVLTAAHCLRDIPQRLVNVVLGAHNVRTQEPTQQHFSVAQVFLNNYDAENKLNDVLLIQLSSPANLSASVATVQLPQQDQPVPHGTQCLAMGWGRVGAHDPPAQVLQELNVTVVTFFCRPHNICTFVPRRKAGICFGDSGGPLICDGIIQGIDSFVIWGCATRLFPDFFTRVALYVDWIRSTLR
The experiment is described as above.

Experiment [5] concerns the target T5, non-sense peptide PGGVPGGVFY
T5 construct: Control peptide in the specificity test
T5 peptide: PGGVPGGVFY
Description: Competitive ELISA on coated Biotin-…. The method, then: (§1) Based on the collected antibodies the ELP-3 assay was developed as competitive ELISA assay. A 96-well streptavidin-coated microtiter plate (Roche, Basel, Switzerland) was coated with 100 ul biotinylated screening peptide (Biotin-[…] (SEQ ID NO: 5)) dissolved in assay buffer for 30 min at 20° C. with shaking. Plates were washed five times in washing buffer (20 mM TRIS, 50 mM NaCl, pH 7). Sample/standard/control (20 ul) was added and followed by addition of (100 ul) monoclonal antibody and incubated for 3 h at 4° C. with shaking. After incubation, plates were washed five times in washing buffer. A volume of 100 ul of secondary HRP labeled goat anti-mouse antibody was added followed by 1 h incubation at 20° C. with shaking. Plates were then washed and TMB was added and the plate was analyzed by a SpectraMax M reader (Molecular Devices, Ca, USA) at 450 nm with 650 nm as the reference. A standard curve was plotted using a 4-parametric mathematical fit model. Each ELISA plate included kit controls to monitor inter-assay variation. All samples were measured within the range of the assay. All samples below the level of lower limit of quantification (LLOQ) were assigned the value of LLOQ.
(§2) Supernatants from antibody producing hybridomas were screened for reactivity against standard peptide, elongated peptide, and truncated peptide in an indirect ELISA. The peptide Biotin-[…] […]

Experiment [6] deals with T6, Elongated peptide LPGGYGLPYTT (human).
T6 construct: Standard peptide extended by one threonine at the C-terminus; also called C-extended elongated version
T6 peptide: LPGGYGLPYTT
Description: Competitive ELISA on coated Biotin-LPGGYGLPYT
The method, then: as §1, §2

Ends that are not written are not given here.

B1: monoclonal antibody clone NBH116/6A10-E7-D12 (antibody, mouse IgG1, kappa, V domains shown)
VH: EVKLVESGGGLVQPGDSLRLSCATSGFTFTDYYMSWVRQPPGKALEWLGFIRNKANGYTTEYSASVKGRFTISRDNSQSILYLQMNTLRAEDSATYYCARDIITTPSWFGYWGQGTLVTVSA
VL: DIQMNQSPSSLSASLGDTITITCHASQNINVWLSWYQQKPGNIPKLLIYKASNLHTGVPSRFSGSGSGTGFTLTISSLQPEDIATYYCQQGQSYPLTFGAGTKLELKR
notes: also called ELP-3 antibody; the selected antibody
For the molecule B1, the binding result is recorded as “binds” in experiment [1]; “no binding” in experiment [2]; “no binding” in experiment [3]; “no binding” in experiment [4]; “no binding” in experiment [5]; “no binding” in experiment [6].

For the origin of these results see patent publication US20240011997A1 (NORDIC BIOSCIENCE A S, published 2024).
